# Results published in patent US20240059741A1, “COMPOSITION FOR PREVENTION OR TREATMENT OF SARS-COV-2 INFECTION” (priority 2020, published 2024).
# Where a SMILES comes first, the peptide text is derived from it. Bridges are numbered along the chain shown (N, C = ends). Where no end group is shown, it is not given here.
# Experiments:
# [1] = target: T1, S1 subunit of SARS-CoV-2 (Severe acute respiratory syndrome coronavirus 2, UniProt P0DTC2); format: binding
# T1 construct: ACE2 and S1 subunits of SARS-CoV-2; His Tag; purchased AcroBiosystems S1N-C52H3-100UG
# [2] = target: T2, interaction of SARS-CoV-2 S1 and hACE2 in hACE2-overexpressed HEK293 cells (Severe acute respiratory syndrome coronavirus 2, UniProt P0DTC2); format: cell-based, human
# T2 construct: S1 protein-His Tag (AcroBiosystems, S1N-C52H3-100UG, USA); AcroBiosystems (S1 protein) 145033; S1N-C52H3-100UG; host or cells: HEK293
Molecule,dependent binding to S1 [1],effect on S1-ACE2 interaction [2],effect on membrane localization of S1 [2]
CSNP3 (ENAINFLDKDNHEKEDLFYQ; not fully specified),no dependent binding,completely eliminated the S1-ACE2 interaction,
CC[C@H](C)[C@H](NC(=O)[C@H](CCCNC(=N)N)NC(=O)[C@@H]1CSSC[C@H](NC(=O)CNC(=O)CNC(=O)[C@@H]2CCCN2C(=O)[C@H](CO)NC(=O)[C@H](C)NC(=O)[C@H](CC(C)C)NC(=O)[C@H](CO)NC(=O)[C@H](CO)NC(=O)[C@H](CCCCN)NC(=O)[C@H](Cc2ccc(O)cc2)NC(=O)[C@H](Cc2ccccc2)NC(=O)[C@H](CC(C)C)NC(=O)[C@H](CC(=O)O)NC(=O)[C@H](CCC(=O)O)NC(=O)[C@@H]2CCCCNC(=O)C[C@H](NC(=O)[C@H](CCCCN)NC(=O)[C@H](CC(=O)O)NC(=O)[C@H](CC(C)C)NC(=O)[C@H](Cc3ccccc3)NC(=O)[C@H](CC(N)=O)NC(=O)[C@H](C)NC(=O)[C@H](C)NC(=O)[C@H](CCC(N)=O)NC(=O)[C@@H](N)CC(C)C)C(=O)N[C@@H](CC(N)=O)C(=O)N[C@@H](CC(=O)O)C(=O)N[C@@H](CCC(=O)O)C(=O)N2)C(=O)N[C@@H](CC(C)C)C(=O)NCC(=O)N[C@@H](CCCCN)C(=O)NCC(=O)N[C@@H](CC(=O)O)C(=O)N1)C(=O)N[C@@H](CC(C)C)C(=O)O [CSNP2] (H-LQAANFLDKDNDEKEDLFYKSSLASPGGCLGKGDCRIL-OH; lactam 10-14; disulfide 29-35; N-terminus and C-terminus assumed),,,completely blocked the membrane localization of S1
